This data set in a line: soluble on expression in E. coli; label from the status in PepcDB or PDB records.
Regarding “MAPVQGSYDYDLIVIGGGSAGLACAKEAVLNGARVACLDFVKPTPTLGTKWGVGGTCVNVGCIPKKLMHQASLLGEAVHEAAAYGWNVDDKIKPDWHKLVQSVQNHIKSVNWVTRVDLRDKKVEYINGLGSFVDSHTLLAKLKSGERTITAQTFVIAVGGRPRYPDIPGAVEYGITSDDLFSLDREPGKTLVVGAGYIGLECAGFLKGLGYEPTVMVRSIVLRGFDQQMAELVAASMEERGIPFLRKTVPLSVEKQDDGKLLVKYKNVETGEESEDVYDTVLWAIGRKGLVDDLNLPNAGVTVQKDKIPVDSQEATNVANIYAVGDIIYGKPELTPVAVLAGRLLARRLYGGSTQRMDYKDVATTVFTPLEYACVGLSEEDAVKQFGADEIEVFHGYYKPTEFFIPQKSVRYCYLKAVAERHGDQRVYGLHYIGPVAGEVIQGFAAALKSGLTINTLINTVGIHPTTAEEFTRLAITKRSGLDPTPAS”, the “soluble on expression in E. coli” value is listed as “soluble”.
To “MAPVTPDAVNARQQRPADPALRRLMHPHHRNYTASKASAHSVKSVSRCGKSRSELGRMERVGSVARSICSRHTRHGVDRSHFSLRDFFRGISANFELGKDFLREMNTPIHVSEAVFLPLSLCTLSPGRCLRLSPFGHSLTLGSHCEICINRSQVHVPQEFSSTQLSFFNNVHKIIPNKTFYVSLLSSSPSAVKAGLSQPSLLYAYLVTGHFCGTICPIFSTNGKGRLIMHLLLQGTSLHIPETCLKLLCENIGPTYELAVDLVGDAFCIKVSPRDTVYEKAVNVDEDAIYEAIKDLECGDELRLQIINYTQLILENKQ” belongs “not soluble”; to “MAQAKHKQRKRLKSSCKRHPLYVDFSDVGWNDWIVAPPGYHAFYCHGECPFPLADHLNSTNHAIVQTLVNSVNSKIPKACCVPTELSAISMLYLDENEKVVLKNYQDMVVEGCGCR”, “soluble”; to “MAQFTEDEKIMRRLEQRFNKGVVKYRLIEDGDKILIGLSGGKDSLALLELLARRSRILKPKFTVIAVHVGMTNIPYQSDLEYLKGYSEDLGVPFVHYETFFDPSTDTRKSPCFLCSWNRRKALFTVAKEQGCNKIALGHHMDDILETLLMNITFQGAFSTMPPKLVMRKFEMTIIRPMCLVHEADLIEMARIRGFRKQIKDCPYESLSNRSNMKEVLYSLEKMNPEARYSLWKCMTNIQEELLPGMNEHDL”, “not soluble”.
The entry for “MAQLMKRGFSTSAALAKAQLVKTPIQVHGVEGRYAAALYSAGHKQNKLDQISTDLNNVRSVYKDNKKFQEFVLDPTLKANKKKTAIEAISTKLGLTKETGNFLGLLAENGRLNKLESVVSSFESIMRAHRGELFVQVTSAEELSSSNQKALSDALSKIGKSGQKLTVTYAVKPSILGGLVVTIGDKYVDLSIASRVKKYKDALATAI” is “not soluble”; for “MAQRGRKPKPTALKILEGNPGKRPLNEDEPKPEKKAPKCPGWLDAEAKKEWRRMSKQLEAMGILTEIDMAAFAGYCQAYARWKEAEEFITKHGTIVKTPSGYWQQVPQVSIAQTYLKIMNRFCEQFGLTPSARSRIVTDNINDEEDPMELILYKGGSKSV” it is “soluble”; for “MAQSSAQLLFDESGQPFIVMREQENQKRITGVEAVKSHILAARAVANTLRTSLGPRGLDKMLVSPDGDVTITNDGATIMEKMDVQHHVAKLMVELSKSQDHEIGDGTTGVVVLAGALLEEAEKLIDRGIHPIKIADGFDLACKKALETLDSISDKFPVENRERLVETAQTSLGSKIVNRSLRQFAEIAVDAVLSVADIESKDVNFEMIKMEGKVGGRLEDTILVKGIVIDKTMSHPQMPKELKNAKVAILTCPFEPPKPKTKHKLDITSTEDFKALRDYERETFETMIRQVKESGATLAICQWGFDDEANHLLQANDLPAVRWVGGPEIELLAIATNARIVPRFSELSKEKLGTAGLVREITFGAAKDRMLSIEQCPNNKAVTIFVRGGNKMIIDEAKRALHDALCVIRNLVRDSRIVYGGGSAELAAAIQVAKEADRIDGIEQYAFRAFADALESIPMALAENSGLAPIDALSDLKAKQIETGKSSLGIDAVFAGTNDMKEQKVIETLLSKREQISLATQVVRMILKIDDVRVPDDERMGY” it is “not soluble”.
To “MAQTKPIAEQMAALNNSDDTSFAADRSNSLLNATCPARIQNSVDQRKINRSFNDSLSSGYSGKWLRPKREALKITPLAQIDEAPATKRHSSAKDKHTEYKTRLCDAFRREGYCPYNDNCTYAHGQDELRVPRRRQEYYSRDPPRERRDSRSRRDDVDTTINRSSSSASKHHDENRRPSNNHGSSNRRQICHNFERGNCRYGPRCRFIHVEQMQHFNANATVYAPPSSDCPPPIAYYHHHPQHQQQFLPFPMPYFLAPPPQAQQGAPFPVQYIPQQHDLMNSQPMYAPMAPTYYYQPINSNGMPMMDVTIDPNATGGAFEVFPDGFFSQPPPTIIS” belongs “not soluble”.
For the sequence “MAQTNLSFNPSPRYKSKKGWYKDTPPKEKGGMPTEVEIAGPIVIENKFIDPKTNTEKLIITDEDQKEIVESSDILTTQKLPSLMKYGFSINEKYTKDLGYALQQMRNQLPISYLYEGVGILETPFGPIVSLSEIYTTKEFDNKSPSDAICDNAYDLTPKGTFDNWFNMYLKEVKGSLLLELAVVFGISALVTSFLKHKHETEFAGIIFSFTGQSSTGKSTAASLAVSVAGNPTKGNETLFRNWNATRNALEGYLSNNFGIPIVFDELSSATFRDTTGLLYSITEGQGRQRSNVHGEVKTPKNWGTSVISTSEHSIFNDSAQNDGLRVRTIEINEQFTTNATNADNIKKAVALNYGHVLPLVAKYLINREDEVIQWFYKEVDWFEAKLKDDKSNTGNRMFKRYAVITTSAKILGRVLATDIDIAKIRDYFIDYHGHTISERSLADKAIDVIIQFVAQNRGKFSDEGALKNMFENYGLISLKDDHIEVKMIANVFKQMLNNHQFQDVNNVVNALRDKGFILADRGRQTTKRSVKDNSGKKQSLVFYHLKLDVEFASILGLTKDKSLIQNWTPANDNKAAKELFKSANEGIGPSGVHEDFLEHHHHHH”, the “soluble on expression in E. coli” value is listed as “not soluble”.
The entry for “MAQTQLSYKNKTYQISYEILGDLSLPQILILHGWGADKKLMKQSFCPFLKDFCQIYMDLAGFGNSSVEEILNTQDYANITELFLKQKKLNVCFFMGHSFGGKVSTLLAKEKDTLILLSSAGILAKKSLKVRFKIRIFKILKLFGLGKFYRYFASKDGANLSPIMYETFKKVVDEDFSEIFAKQKAKSLIFWGKSDEATPLYCGEKMHQFLKNSTFYPLEGDHFFFLKHSAFIAQKIKEI” is “not soluble”.
To “MAQVKAEYDFQSQPNTGELSISAGEVLTVIRENIDGGWIEGRNVRGSVGLFPESYVTPYQASRPPPVLPPPLPPTSSGPPAASSRPFDDWGGASEVAAPPSYGAQHHHQPTPSVPEVTRSSYPSQNDDFDDEWTDEDDEQEPTRPNVQSSIGSNSRRDLSRSHSEHGGPDRGSNKVNKNINRFSNFVKSGVEAYVIGESKTTSQISERHEVVMNNGIIQWKPIQQYYTCIVDKPKKESKLKGLKSFIAYSITSSLTNIQRQVSRRYKHFDWLHEQLSAKYVLIPIPPLPEKQVAGRYEEDLIDHRKHILQLWVNKICRHPVLSQSEVWLHFISCTDEKDWKNGKRRAEKDEYIGGAFLNCITVPHQPLDPNNVDMQVERFQRSVKTSEEAMRVMQERMNMFQKVFAGPVKQNWQKMGSAFKTLQQSFEIDETVASRRLTEALAYTASEYHEIGQVFDAHTKNDMEPVLENLYSYKGTVQNVPDIIQVHKQAVQKFRDSEGRLSSAEAEKMKQRIDAMSYTVIAEVQHQTAEKVEDMKSTMGTYLKKQAMFYQEVATKLTSLAARYD” belongs “not soluble”; to “MAQWSTMSTADRDFVVRFPTGTSDPLSDAEIQQYREEIDRLDKEILAAVKRRTEISRAIGKTRMGSGGTRLVHTREVAIINQFREEIGEEGPALAGILLRMGRGRLGEAR”, “not soluble”; to “MAQYRPDELARYAQRVMDWLHPDGDLTDTERARKRGITLSNQQYDGMSRLSGYLTPQARATFEAVLAKLAAPGATNPDDHTPVIDTTPDAAAIDRDTRSQAQRNHDGLLAGLRALIASGELGQHNGLPVSIVVTTTLTDLQTGAGKGFTGGGTLLPMADVIRMTSHAHHYSPASGRYPQAIFDHGTPLALYHTKRLASPAQRIMLEHHHHHH”, “soluble”.

The values are drawn from the DeepSol protein solubility set.
